Source: the supplement of paper PMC11780869

Tested on: Bacillus subtilis
Assay: cleaved RNA product abundance (RNA/gDNA barcode ratio) relative to median wild-type variant (ratio to wild type); higher = more accumulation of the downstream cleavage product
Description: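 MPRA in B. subtilis. Mutagenized RNase Y cleavage-site regions (9% mutation rate) were inserted into a barcoded reporter mRNA (truncated aprE or tetM). Cells were grown in LB at 37°C to OD600 0.3. The cleaved RNA isoform was gel-purified and its barcodes counted; the RNA:gDNA barcode ratio was normalised to the median wild-type variant, and the median over barcodes is reported per variant. The printed sequence is the variable window only; the reporter flanks are not printed.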

[1] = experiment (reporter, strain, medium): exp 8a: truncated aprE reporter, strain BJT201 with 2% xylose (RNase J1 expressed), cleavage site: glnRA (positions -5 to +31 mutated)
[2] = experiment (reporter, strain, medium): exp 2b: truncated aprE reporter, strain BJT200, cleavage site: cggR-gapA (positions -7 to +36 mutated)
[3] = experiment (reporter, strain, medium): exp 4a: truncated aprE reporter, strain BJT201 with 2% xylose (RNase J1 expressed), cleavage site: cggR-gapA (positions -7 to +36 mutated)

Sequence	cleaved RNA product abundance [1]	cleaved RNA product abundance [2]	cleaved RNA product abundance [3]
CGACATGTCCCGCTTCTTTCATTATTGCGTTAGCAACTGTTTTGCTATATACATTTACCTTTTAAGAGGAGGAAT	1.54		
ACAGACGAAGGAGCCGCAAAGAAGTTATCAAGGGATGAATAAACCCTCAATATAAATATCTCTCACTTATTTAAA		0.148	0.205
ACAGACGAAGGAGCCGCAAAGAAGTTTTTAGGGGATGAATAATCCCTCAATATAAATATCTCTCACTTATTTAAA			0.507
ACAGACGAAGGAGCCGCAAAGAAGTTATTAAGGGATGAATAATCCCTCAATATAAATATCACTCACTTATTTAAA			0.917
ACAGACGAAGGAGCCGCAAAGAAGTTATTAAGTGATGAATAATCCCTTAATATAAATATCTCTCACTTATTTAAA		0.6	0.388
ACAGACGAAGGAGCCGCAAAGAAGTGATTAAGGGATGAATAACCCCTCAATATAAATATCTCTCACTTATTTAAA			0.163
ACAGACGAAGGAGCCGCAAACAAGTTATTAAGGGATGAATTATCCCTCAATATAAATATCTCTCACTTATTTAAA		0.669	
CGACATGTCCCGCTTCTTTCATTAATCTGTTAGCAACTGTTTTGCTATATACATTTACATTTTAAGAGGAGGAAT	1.2		
ACAGACGAAGGAGCCGCAAAGAATTTATTAAGGGATGAACAATCCCTCAATATAAATATCTCTCACTTATTTAAA			0.451
ACAGACGAAGGAGCCGCGAAGAAGTTATTAAGGGATAAATAATCCCTCAATATAAATATCTCTCACTTATTTAAA			0.679
CGACATGTCCCGCTTCTTTCATTACTCCGTTAGTAACGGTTTTGCTATATACATTTACCTTTTAAGAGGAGGAAT	0.281		
ACAGACGAAGGAGCCGCAAAGAAGTTATTAAGGGATGAATCATCCCTAAATATAAATATCTCTCACTTATTTAAA		0.597	1
ACAGACGAAGGAGCCGCAAAGAAGTAATTAAGGGATGAATAATCCCTCAGTATAAATATCTCTCACTTATTTAAA			0.0878
ACAGACGAAGGAGCCGCAAAGAAGTTATTAAGGGATGAATAATCCATCAATATAAAAATCTCTCACTTATTTAAA			0.145
CGACATGTCCCGCTTCTTTCATTAATCCGTTAGCAACTGTTTTCCTATATACATTCACCTTTTAAGAGGAGGAAT	0.346		
ACAGACGAAGGAGCCGCAAAGAAGTTATTAATCGATGAATAATCCCTCAATATAAATATCTCTCACTTATTTAAA			0.164
ACAGACGAAGGAGCCGCAAAGAAGTTATTAAGGGATGAATAATCCATCAATGTAAATATCTCTCACTTATTTAAA		0.0896	0.0513
CGACATGTCCCGCTTCTTTCATTAATCCGTTAGGAACTGTTTTGCGATATACATTTACCTTTTAAGAGGAGGAAT	0.312		
CGACATGTCCCGCTTCTTTCATTAATCAGTTAGCAACTGTTTTGCTATATACATTTACCATTTAAGAGGAGGAAT	0.636		
CGACATGTCCCGCTTCTTTCATTAATCCGTAAGCAACTGTTTTGCTATATACATTTACGTTTTAAGAGGAGGAAT	0.475		

Sequence	cleaved RNA product abundance [1]	cleaved RNA product abundance [2]	cleaved RNA product abundance [3]
ACAGACGAAGGAGCCGCAAAAAAGTTAATAAGGGATGAATAATCCCTCAATATAAATATCTCTCACTTATTTAAA		0.335	0.365
CGACATGTCCCGCTTCTTTCATTAATCTGTTAGCAACTGTTTTGCTAAATACATTTACCTTTTAAGAGGAGGAAT	1.01		
CGACATGTCCCGCTTCTTTCATTAATCCTTTACCAACTGTTTTGCTATATACATTTACCTTTTAAGAGGAGGAAT	0.125		
ACAGACGAAGGAGCCGCAAAGAAGTTAATAAGGGATGAACAATCCCTCAATATAAATATCTCTCACTTATTTAAA		0.251	
CGACATGTCCCGCTTCTTTCATTAATCCGTTAGCAACTGTTTGGCTATATACAATTACCTTTTAAGAGGAGGAAT	0.279		
ACAGACGAAGGAGCCGCAAAGAAGTTATTAAGGGATGAATAATCCCTCAACAAAAATATCTCTCACTTATTTAAA		0.105	
ACAGACGAAGGAGCCGCAAAGAAGTTATTAAGGGATGAATAATTCCTCAACATAAATATCTCTCACTTATTTAAA		0.134	0.183
CGACATGTCCCGCTTCTTTCATTAATCCGTTCGAAACTGTTTTGCTATATACATTTACCTTTTAAGAGGAGGAAT	0.347		
CGACATGTCCCGCTTCTTTCATTAATCCGGTAGCAACTGTTTTGCAATATACATTTACCTTTTAAGAGGAGGAAT	0.533		
CGACATGTCCCGCTTCTTTCATTACTCCGTTAGCAACTGTTTTGGTATATACATTTACCTTTTAAGAGGAGGAAT	0.278		
CGACATGTCCCGCTTCTTTCATTAATCCTTCAGCAACTGTTTTGCTATATACATTTACCTTTTAAGAGGAGGAAT	0.478		
CGACATGTCCCGCTTCTTTCATTAATCCGTTAGCAACTGTTTTGCTTTATACATTTACCTTTTAAGAGGAGGAAT	0.338		
ACAGACGAAGGAGCCGCAAAGATGTTATTAAGGGATCAATAATCCCTCAATATAAATATCTCTCACTTATTTAAA		0.708	1.08
CGACATGTCCCGCTTCTTTCATTAATCCGTTAGCAACCTTTTTGCTATATACATTTACCTTTTAAGAGGAGGAAT	1.44		
ACAGACGAAGGAGCCGCAAAGAAGTTATTAAGGGATGAATAACCCCTCCATATAAATATCTCTCACTTATTTAAA			0.178
ACAGACGAAGGAGCCGCATAGAAGTTATTAAGGGATGAATAATCCCTCCATATAAATATCTCTCACTTATTTAAA			0.24
ACAGACGAAGGAGCCGCAAAGAAGTTACTAAGGGATGAATAATCGCTCAATATAAATATCTCTCACTTATTTAAA		0.0765	0.0864
CGACATGTCCCGCTTCTTTCATTACTACGTTAGCAACTGTTTTGCTATATACATTTACCTTTTAAGAGGAGGAAT	2.07		
ACAGACGAAGGAGCCGCAAAGAAAATATTAAGGGATGAATAATCCCTCAATATAAATATCTCTCACTTATTTAAA			0.697
ACAGACGAAGGAGCCGCAAAGAAGTTATTAAGGGATGAGTAATCCTTCAATATAAATATCTCTCACTTATTTAAA			0.346

Sequence	cleaved RNA product abundance [1]	cleaved RNA product abundance [2]	cleaved RNA product abundance [3]
CGACATGTCCCGCTTCTTTCATTAGTCCGTTAGCAACTGTTTTGCTATATACTTTTACCTTTTAAGAGGAGGAAT	0.341		
ACAGACGAAGGAGCCGCAAAGAAGTTATTAAGGGATGAAAAATCCTTCAATATAAATATCTCTCACTTATTTAAA		0.355	0.505
CGACATGTCCCGCTTCTTTCATTAATACGTTAGCAACTGTTTTGCTAAATACATTTACCTTTTAAGAGGAGGAAT	0.266		
ACAGACGAAGGAGCCGCAAAAAAGTTATTAAAGGATGAATAATCCCTCAATATAAATATCTCTCACTTATTTAAA		0.164	0.224
ACAGACGAAGGAGCCGCAAAGAAGTCATTAAGGGATGAATAATCCTTCAATATAAATATCTCTCACTTATTTAAA			0.189
ACAGACGAAGGAGCCGCAAAGAAGTTATTAAGGGATGAAAAAACCCTCAATATAAATATCTCTCACTTATTTAAA		0.411	0.642
ACAGACGAAGGAGCCGCAAAGAAGTTATTAAGAGATGAATAATACCTCAATTTAAATATCTCTCACTTATTTAAA			0.0323
CGACATGTCCCGCTTCTTTCATTAATCCATTAGCAACTGTTTTGCTATATAAATTTACCTTTTAAGAGGAGGAAT	0.754		
CGACATGTCCCGCTTCTTTCATTAATCCGTTATCAACTGTTTTGCGATATACATTTACCTTTTAAGAGGAGGAAT	0.168		
CGACATGTCCCGCTTCTTTCATTAATCCGTTATCAACTGTTTTCCTATATACATTTACCTTTTAAGAGGAGGAAT	0.292		
ACAGACGAAGGAGCCGCAAAGAAGTTATTAAGAGATGAATAATCCCTCAAAATAAATATCTCTCACTTATTTAAA		0.101	0.106
ACAGACGAAGGAGCCGCAAAGAAGTTATTAAGGGACGAATAAACCCTCAATATAAATATCTCTCACTTATTTAAA		0.197	0.237
ACAGACGAAGGAGCCGCAAAGAAGTTATTAAGGGATGAATAAACCCTCAATATAGATATCTCTCACTTATTTAAA		0.365	0.342
ACAGACGAAGGAGCCGCAAAGAAGTAATTAAGGGATGAATAATCCCTCGATATAAATATCTCTCACTTATTTAAA		0.102	0.155
CGACATGTCCCGCTTCTTTCATTACTCCGTTAGCAACTGTTTTGCTATATACAATTACCTTTTAAGAGGAGGAAT	1.14		
CGACATGTCCCGCTTCTTTCATTATTCCGTTAGCAACTTTTTTGCTATATACTTTTACCTTTTAAGAGGAGGAAT	0.558		
ACAGACGAAGGAGCCGCAAAGAAGTTAATAAGGGATGAATAATCCCTCATTATAAATATCTCTCACTTATTTAAA			0.794
ACAGACGAAGGAGCCGCAAAGAAGTTATTAAGGCATGAATAATCCCTCAATATATATATCTCTCACTTATTTAAA		0.106	0.11
ACAGACGAAGGAGCCGCAAAGAAGTTATTAAAGTATGAATAAACCCTCAATATAAATATCTCTCACTTATTTAAA		0.102	
